The values below come from PMC10487585, “Refolding Increases the Chaperone-like Activity of αH-Crystallin and Reduces Its Hydrodynamic Diameter to That of α-Crystallin” (International Journal of Molecular Sciences, 2023).

The target of series [1] is UV-damaged βL-crystallin (bovine (endogenous in steer lens)).
Series [2] concerns the molecule itself. Briefly: dynamic light scattering; ZetaSizer S nano; protein 1 mg/mL in PBS (40 mM sodium phosphate, pH 7.0, 100 mM NaCl, 1 mM EDTA, 3 mM NaN3); native protein without urea, or after renaturation from urea.
The target of the next series is T1, αB-crystallin (bovine (endogenous in steer lens), UniProt P02510 1-175).
T1 construct: αB-crystallin (19.8 kDa), identified by mass on SDS-PAGE; source: purified from lenses of 6-month-old steers as a part of α-crystallin and HMWA
T1 sequence (looked up): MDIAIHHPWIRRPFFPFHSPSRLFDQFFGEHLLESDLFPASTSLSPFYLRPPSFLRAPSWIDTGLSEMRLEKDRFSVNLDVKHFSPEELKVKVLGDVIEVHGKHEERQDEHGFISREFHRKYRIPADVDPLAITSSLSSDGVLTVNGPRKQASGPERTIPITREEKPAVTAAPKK
Briefly: SEC; Sephacryl S300HR, 2.5 × 90 cm, 1.6 mL/min, calibrated with standard proteins; polypeptides of the preparations and fractions by SDS-PAGE. The conditions noted are these: both partners purified.

In the case of “refolded HMWA (from UniProt P02470 1-173; P02510 1-175) (complex)”, the abscissa point of intersection (reciprocal of AC0) of the relative aggregation rate of UV-damaged βL-crystallin against the chaperone/target protein ratio; points with accelerated aggregation left out (mol/mol (chaperone/target protein)) in series [1] was 0.38.

For “αH-crystallin, high molecular weight aggregate (native) (from UniProt P02470 1-173; P02510 1-175) (complex)”, in series [1], the abscissa point of intersection (reciprocal of AC0) of the relative aggregation rate of UV-damaged βL-crystallin against the chaperone/target protein ratio (mol/mol (chaperone/target protein)) amounted to 0.46 and the initial adsorption capacity AC0 from the aggregation kinetics of UV-damaged βL-crystallin (37 °C, 360 nm): target protein/chaperone mol/mol ratio, counted on monomers (mol/mol (target protein/chaperone)) turned out to be 2.

B1: α-crystallin (native, from the lens cortex) (complex, bovine (endogenous in steer lens))
chain 1: MDIAIQHPWFKRTLGPFYPSRLFDQFFGEGLFEYDLLPFLSSTISPYYRQSLFRTVLDSGISEVRSDRDKFVIFLDVKHFSPEDLTVKVQEDFVEIHGKHNERQDDHGYISREFHRRYRLPSNVDQSALSCSLSADGMLTFSGPKIPSGVDAGHSERAIPVSREEKPSSAPSS
chain 2: T1 sequence (looked up)
notes: αA-crystallin, from steer lens; identified by mass on SDS-PAGE (20 kDa); αB-crystallin, from steer lens; identified by mass on SDS-PAGE (19.8 kDa); Polydisperse oligomer; by SDS-PAGE αA-crystallin 30%, αB-crystallin 60%, truncated α-crystallin 10% (a mixture of αA and αB fragments); also called authentic α-crystallin; native α-crystallin; source: purified from lenses of 6-month-old steers (gel …)
As to B1, in series [2], the binding result is on record as “binds”.

B2: renatured α-crystallin (complex, bovine (endogenous in steer lens))
chain 1: B1 chain 1
chain 2: T1 sequence (looked up)
notes: αA-crystallin, from steer lens; as in m1; αB-crystallin, from steer lens; Same polypeptides as m1, reassembled from monomers after urea
With B2, the binding result in series [2] is listed as “binds”.

B3: αA-crystallin (natural protein, bovine (endogenous in steer lens), UniProt P02470 1-173, looked up)
chain: B1 chain 1
notes: αA-crystallin (20 kDa), identified by mass on SDS-PAGE; source: purified from lenses of 6-month-old steers as a part of α-crystallin and HMWA
As to B3, the binding result with αB-crystallin is “binds”.
